Assay results reported in article PMC4434323.

molecular target: T1, F10B5.3 (F10B5.3) (Caenorhabditis elegans) (UniProt Q09534)
T1 sequence: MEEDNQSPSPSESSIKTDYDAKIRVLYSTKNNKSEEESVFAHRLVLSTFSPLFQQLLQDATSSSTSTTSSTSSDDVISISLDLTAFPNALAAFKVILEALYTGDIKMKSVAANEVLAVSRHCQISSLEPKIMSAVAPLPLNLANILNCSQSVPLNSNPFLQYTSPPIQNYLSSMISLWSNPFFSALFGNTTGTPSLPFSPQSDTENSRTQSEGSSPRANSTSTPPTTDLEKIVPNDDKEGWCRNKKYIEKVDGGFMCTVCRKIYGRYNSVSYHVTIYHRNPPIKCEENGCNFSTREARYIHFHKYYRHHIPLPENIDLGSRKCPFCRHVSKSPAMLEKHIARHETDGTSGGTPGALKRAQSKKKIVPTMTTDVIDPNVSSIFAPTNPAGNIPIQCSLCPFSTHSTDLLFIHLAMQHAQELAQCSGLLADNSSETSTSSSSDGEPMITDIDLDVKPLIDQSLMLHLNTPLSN

Row | Sequence | binding signal (PBM E-score (-0.5 to 0.5))
1 | TCCACGAA (double strand) [8-mer TCCACGAA] | 0.476
2 | TCCTGGAA (double strand) [8-mer TCCTGGAA] | 0.491
3 | TACACGAA (double strand) [8-mer TACACGAA] | 0.476
4 | ATTTCCAG (double strand) [8-mer ATTTCCAG] | 0.473
5 | TTCGAGAA (double strand) [8-mer TTCGAGAA] | 0.477
6 | GTTCCAGA (double strand) [8-mer GTTCCAGA] | 0.473
7 | TTCCGGAA (double strand) [8-mer TTCCGGAA] | 0.49
8 | CCTCGAAA (double strand) [8-mer CCTCGAAA] | 0.474
9 | CCTGGAAA (double strand) [8-mer CCTGGAAA] | 0.48
10 | TCCTCGAA (double strand) [8-mer TCCTCGAA] | 0.481
11 | CTGGAAAA (double strand) [8-mer CTGGAAAA] | 0.475
12 | TCGTGGAA (double strand) [8-mer TCGTGGAA] | 0.483
13 | TCTGGAAA (double strand) [8-mer TCTGGAAA] | 0.487

molecular target: lin-48 (F34D10.5) (Caenorhabditis elegans) (UniProt G5EDU6)
Sequence (G5EDU6 83-280): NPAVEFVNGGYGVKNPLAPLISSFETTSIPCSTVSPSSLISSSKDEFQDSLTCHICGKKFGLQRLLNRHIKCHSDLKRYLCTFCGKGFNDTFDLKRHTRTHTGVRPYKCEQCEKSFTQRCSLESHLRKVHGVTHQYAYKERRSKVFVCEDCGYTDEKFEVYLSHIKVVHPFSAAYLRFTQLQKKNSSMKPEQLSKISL

Row | Sequence | binding signal (PBM E-score (-0.5 to 0.5))
14 | ACCGTTAT (double strand) [8-mer ACCGTTAT] | 0.493
15 | ATAACGGG (double strand) [8-mer ATAACGGG] | 0.494
16 | AACCGTTA (double strand) [8-mer AACCGTTA] | 0.49
17 | CCGTTATC (double strand) [8-mer CCGTTATC] | 0.49
18 | ACCGTTAG (double strand) [8-mer ACCGTTAG] | 0.489
19 | GTAACGGA (double strand) [8-mer GTAACGGA] | 0.485
20 | CCGTTATA (double strand) [8-mer CCGTTATA] | 0.494
21 | CCGTTACA (double strand) [8-mer CCGTTACA] | 0.486
22 | AGTAACGG (double strand) [8-mer AGTAACGG] | 0.487
23 | GACCGTTA (double strand) [8-mer GACCGTTA] | 0.496
24 | TAACGGGA (double strand) [8-mer TAACGGGA] | 0.49
25 | GTCCGTTA (double strand) [8-mer GTCCGTTA] | 0.487
26 | TAACGGTA (double strand) [8-mer TAACGGTA] | 0.494
27 | ACCGTTAC (double strand) [8-mer ACCGTTAC] | 0.497
28 | ATAACGGA (double strand) [8-mer ATAACGGA] | 0.485

molecular target: odd-2 (C34H3.2) (Caenorhabditis elegans) (UniProt Q9N5X6)
Sequence (Q9N5X6 74-252): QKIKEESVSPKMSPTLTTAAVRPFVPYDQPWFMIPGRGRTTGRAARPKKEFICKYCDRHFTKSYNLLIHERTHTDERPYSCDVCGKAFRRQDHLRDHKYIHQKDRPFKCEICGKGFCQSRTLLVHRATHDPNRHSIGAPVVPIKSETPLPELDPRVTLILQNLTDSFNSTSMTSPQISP

Row | Sequence | binding signal (PBM E-score (-0.5 to 0.5))
29 | CCAGTAGC (double strand) [8-mer CCAGTAGC] | 0.492
30 | CCGGTAGC (double strand) [8-mer CCGGTAGC] | 0.496
31 | CAGTAGCG (double strand) [8-mer CAGTAGCG] | 0.488
32 | CGGTAGCA (double strand) [8-mer CGGTAGCA] | 0.496
33 | CAGTAGCA (double strand) [8-mer CAGTAGCA] | 0.495
34 | AGCTACCG (double strand) [8-mer AGCTACCG] | 0.492
35 | AACAGTAG (double strand) [8-mer AACAGTAG] | 0.492

molecular target: pag-3 (F45B8.4) (Caenorhabditis elegans) (UniProt G5EDE1)
Sequence (G5EDE1 76-311): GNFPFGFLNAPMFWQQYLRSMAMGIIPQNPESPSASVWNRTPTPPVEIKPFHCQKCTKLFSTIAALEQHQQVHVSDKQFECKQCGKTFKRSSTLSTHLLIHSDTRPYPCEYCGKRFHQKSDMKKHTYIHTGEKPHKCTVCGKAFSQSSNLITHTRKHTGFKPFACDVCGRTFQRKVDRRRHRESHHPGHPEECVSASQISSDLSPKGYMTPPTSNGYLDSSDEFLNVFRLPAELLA

Row | Sequence | binding signal (PBM E-score (-0.5 to 0.5))
36 | AAATCACG (double strand) [8-mer AAATCACG] | 0.492
37 | AAATCTCA (double strand) [8-mer AAATCTCA] | 0.487
38 | AAATCTGT (double strand) [8-mer AAATCTGT] | 0.49

molecular target: T2, che-1 (C55B7.12) (Caenorhabditis elegans) (UniProt Q966L8)
T2 sequence: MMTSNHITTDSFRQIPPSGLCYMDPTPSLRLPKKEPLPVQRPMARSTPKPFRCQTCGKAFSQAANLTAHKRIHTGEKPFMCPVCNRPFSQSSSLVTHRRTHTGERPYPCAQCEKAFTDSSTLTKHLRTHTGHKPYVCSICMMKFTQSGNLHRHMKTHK

Row | Sequence | binding signal (PBM E-score (-0.5 to 0.5))
39 | GGCTTCCC (double strand) [8-mer GGCTTCCC] | 0.497
40 | AAGGCTTC (double strand) [8-mer AAGGCTTC] | 0.494
41 | AGGCTTCC (double strand) [8-mer AGGCTTCC] | 0.491
42 | AAGAAGCC (double strand) [8-mer AAGAAGCC] | 0.493
43 | AGAAGCCA (double strand) [8-mer AGAAGCCA] | 0.489
44 | ATGGCTTC (double strand) [8-mer ATGGCTTC] | 0.495
45 | AGGAAGCC (double strand) [8-mer AGGAAGCC] | 0.49
46 | AGAAGCCC (double strand) [8-mer AGAAGCCC] | 0.491
47 | AGGGCTTC (double strand) [8-mer AGGGCTTC] | 0.497
48 | GGGCTTCA (double strand) [8-mer GGGCTTCA] | 0.493
49 | GGAAGCCA (double strand) [8-mer GGAAGCCA] | 0.494
50 | ATGAAGCC (double strand) [8-mer ATGAAGCC] | 0.489
51 | GAAGCCCC (double strand) [8-mer GAAGCCCC] | 0.492
52 | GGAAGCCC (double strand) [8-mer GGAAGCCC] | 0.495

molecular target: T3, F13H6.1 (F13H6.1) (Caenorhabditis elegans) (UniProt H2KZR6)
T3 sequence: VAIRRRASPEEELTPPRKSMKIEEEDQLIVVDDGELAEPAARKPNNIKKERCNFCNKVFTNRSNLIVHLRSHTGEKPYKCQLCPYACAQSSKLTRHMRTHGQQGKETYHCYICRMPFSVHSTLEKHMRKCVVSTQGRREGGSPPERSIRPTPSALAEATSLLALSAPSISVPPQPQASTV

Row | Sequence | binding signal (PBM E-score (-0.5 to 0.5))
53 | GAGTGACC (double strand) [8-mer GAGTGACC] | 0.496
54 | AATGGTCA (double strand) [8-mer AATGGTCA] | 0.495
55 | CTTGACCA (double strand) [8-mer CTTGACCA] | 0.496
56 | AGTGACCA (double strand) [8-mer AGTGACCA] | 0.498
57 | GATGACCA (double strand) [8-mer GATGACCA] | 0.494
58 | CTGACCAC (double strand) [8-mer CTGACCAC] | 0.495
59 | GTGGTCAA (double strand) [8-mer GTGGTCAA] | 0.496
60 | ATTGGTCA (double strand) [8-mer ATTGGTCA] | 0.495
61 | GGTGGTCA (double strand) [8-mer GGTGGTCA] | 0.494
62 | GTTGACCA (double strand) [8-mer GTTGACCA] | 0.494
63 | AGTGGTCA (double strand) [8-mer AGTGGTCA] | 0.497
64 | AATGACCA (double strand) [8-mer AATGACCA] | 0.496
65 | ACTGACCA (double strand) [8-mer ACTGACCA] | 0.497
66 | ACTGGTCA (double strand) [8-mer ACTGGTCA] | 0.495
67 | AAGTGACC (double strand) [8-mer AAGTGACC] | 0.494

molecular target: T4, Y44A6D.3 (Y44A6D.3) (Caenorhabditis elegans) (UniProt Q9XXE0)
T4 sequence: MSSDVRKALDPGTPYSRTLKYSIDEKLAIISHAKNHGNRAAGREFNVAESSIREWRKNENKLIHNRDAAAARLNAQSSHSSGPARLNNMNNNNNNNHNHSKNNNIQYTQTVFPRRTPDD

Row | Sequence | binding signal (PBM E-score (-0.5 to 0.5))
68 | CTGCGCAA (double strand) [8-mer CTGCGCAA] | 0.495
69 | ACTGCGCA (double strand) [8-mer ACTGCGCA] | 0.498
70 | GCTGCGCA (double strand) [8-mer GCTGCGCA] | 0.494
71 | CTGCGCAG (double strand) [8-mer CTGCGCAG] | 0.496
72 | CCGCGCAC (double strand) [8-mer CCGCGCAC] | 0.496
73 | TCCGCGCA (double strand) [8-mer TCCGCGCA] | 0.495
74 | GGTGCGCA (double strand) [8-mer GGTGCGCA] | 0.493
75 | ACCGCGCA (double strand) [8-mer ACCGCGCA] | 0.495
76 | ATGCGCAG (double strand) [8-mer ATGCGCAG] | 0.493
77 | GCCGCGCA (double strand) [8-mer GCCGCGCA] | 0.494
78 | CCGCGCAG (double strand) [8-mer CCGCGCAG] | 0.495
79 | CCTGCGCA (double strand) [8-mer CCTGCGCA] | 0.493
80 | ATGCGCGG (double strand) [8-mer ATGCGCGG] | 0.494

molecular target: T5, nhr-204 (R02C2.4) (Caenorhabditis elegans) (UniProt O44543)
T5 sequence: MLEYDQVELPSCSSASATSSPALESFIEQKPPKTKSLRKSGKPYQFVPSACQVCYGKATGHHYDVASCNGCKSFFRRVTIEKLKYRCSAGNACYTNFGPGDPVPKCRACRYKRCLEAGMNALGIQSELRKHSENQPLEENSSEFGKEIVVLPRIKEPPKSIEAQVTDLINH

Row | Sequence | binding signal (PBM E-score (-0.5 to 0.5))
81 | ATTGGTCA (double strand) [8-mer ATTGGTCA] | 0.477
